Where no end group is shown, it is not given here.
What was measured:
[1] = siRNA release from nanogels in PBS containing 10% fetal bovine serum; type: physicochemical; conditions: after the first 12 hours, 37° C., PBS with 10% fetal bovine serum
Procedure: [formula] The release of solutes from nanogels was performed in 10% serum to simulate physiological conditions. Release experiments were performed by dispersing 200 μL of loaded nanogels in 2.20 mL of 0.01 M phosphate buffered saline containing 10% fetal bovine serum (equilibrated at 37° C.) in 3.2 mL polycarbonate centrifuge tubes (Beckman Coulter, USA). The nanogel suspension was allowed to incubate at 37° C. while shaking. At specific time points, the tubes were centrifuged for […] at 687 000×g (at 37° C.), and an aliquot of supernatant (0.75 mL) was removed for UV-vis analysis. This volume was replaced with fresh buffer. […] The cumulative siRNA released was calculated by calculating the total moles detected in the supernatant as a function of time, as described in Equation 2.
All release studies were performed in triplicate for statistical analysis, using identical nanogel loading and release conditions.

[2] = system: Hey cells; assay: Nanogel/siGLO uptake by confocal microscopy, Hey cells; type: cell-based; conditions: Hey cells (high EphA2), 4 h incubation, serum-containing medium
Procedure: Cell transfection using nanogels. Hey or BG-1 cells were plated onto an 8-well chamber slide (5×10^3 cells/well), and the cells allowed to adhere overnight at 37° C. in a 5% CO2 atmosphere. After washing the wells with PBS and replacing the media, siGLO-loaded/YSA-conjugated nanogels, unloaded YSA-conjugated nanogels, pNIPMAm nanogels, or siGLO only were added to wells. Cells were incubated in each case for 4 h. In experiments where preincubation of ephrin-A1 was used to initiate internalization and degradation of EphA2, ephrin-A1 was added to the media at a final concentration of the ligand of 2 μg/mL. After incubation, the cells were washed with PBS, and the medium replaced. For fixation prior to confocal imaging, the cells were incubated with 2% (v/v) paraformaldehyde for 30 min
Confocal microscopy. A Zeiss LSM510 confocal microscope was used to take cell images. Cells were incubated with nanogels for 4 h. After 4 h, the cells were washed and then fixed on the slide. […]
Following loading with siGLO, nanogels were incubated with either Hey (high EphA2 expression) or BG-1 (low EphA2 expression) cells in order to compare the levels of targeted uptake by ovarian cancer cells. Uptake of the nanogels into the cells was followed using a fluorescent tag (AFA) incorporated into the nanogel core as well as by the fluorescence of the siGLO. […]

[3] = system: Hey cells; assay: Trypan blue exclusion assay; type: cell-based
Procedure: Toxicity Studies—Trypan blue exclusion assay. Hey cells were plated onto an 8-well chamber slide (1×10^4 cells/well) and allowed to adhere overnight at 37° C. and 5% CO2. The media was removed, the wells washed with PBS, and the medium replaced. PNIPMAm nanogels, YSA-conjugated nanogels, and SCR-conjugated nanogels were added to cells and incubated for 72 h. Untreated cells were used as controls. After 72 h, the cells washed with PBS, and a 1:1 solution of trypan blue was added to each well. After 1 min, the trypan blue was removed, the cells were washed with PBS, fixed with 2% (v/v) paraformaldehyde, and air dried. Each well was then viewed via bright field microscopy to determine the number of stained (dead) versus unstained cells. Five fields were viewed for each treatment.

Substance: YSA-conjugated nanogels: core/shell pNIPMAm nanogels with YSA peptide coupled to shell amines via maleimide (EMCA) (YSAYPDSVPMMSC; also: coupled to nanogel shell amines via maleimide (EMCA))
- siRNA retained in the nanogels [1]: approximately 70%
- nanogel uptake (green AFA fluorescence) [2]: strong green fluorescence
- blue (dead) cells [3]: not observed
